Results from patent publication US20250051404A1.

Columns and labels:
human VEGF165 (human) = human VEGF165 (human) (UniProt P15692); experiment: direct binding ELISA, VEGF165 coated, anti-human IgG Fc-HRP detection
[1] = biological target: integrin αvβ3 expressed on CHO cells (CHO-αvβ3); experiment: cell-based or functional assay

soluble integrin αvβ3, sequence (P06756 31-992, chain 1 of 2): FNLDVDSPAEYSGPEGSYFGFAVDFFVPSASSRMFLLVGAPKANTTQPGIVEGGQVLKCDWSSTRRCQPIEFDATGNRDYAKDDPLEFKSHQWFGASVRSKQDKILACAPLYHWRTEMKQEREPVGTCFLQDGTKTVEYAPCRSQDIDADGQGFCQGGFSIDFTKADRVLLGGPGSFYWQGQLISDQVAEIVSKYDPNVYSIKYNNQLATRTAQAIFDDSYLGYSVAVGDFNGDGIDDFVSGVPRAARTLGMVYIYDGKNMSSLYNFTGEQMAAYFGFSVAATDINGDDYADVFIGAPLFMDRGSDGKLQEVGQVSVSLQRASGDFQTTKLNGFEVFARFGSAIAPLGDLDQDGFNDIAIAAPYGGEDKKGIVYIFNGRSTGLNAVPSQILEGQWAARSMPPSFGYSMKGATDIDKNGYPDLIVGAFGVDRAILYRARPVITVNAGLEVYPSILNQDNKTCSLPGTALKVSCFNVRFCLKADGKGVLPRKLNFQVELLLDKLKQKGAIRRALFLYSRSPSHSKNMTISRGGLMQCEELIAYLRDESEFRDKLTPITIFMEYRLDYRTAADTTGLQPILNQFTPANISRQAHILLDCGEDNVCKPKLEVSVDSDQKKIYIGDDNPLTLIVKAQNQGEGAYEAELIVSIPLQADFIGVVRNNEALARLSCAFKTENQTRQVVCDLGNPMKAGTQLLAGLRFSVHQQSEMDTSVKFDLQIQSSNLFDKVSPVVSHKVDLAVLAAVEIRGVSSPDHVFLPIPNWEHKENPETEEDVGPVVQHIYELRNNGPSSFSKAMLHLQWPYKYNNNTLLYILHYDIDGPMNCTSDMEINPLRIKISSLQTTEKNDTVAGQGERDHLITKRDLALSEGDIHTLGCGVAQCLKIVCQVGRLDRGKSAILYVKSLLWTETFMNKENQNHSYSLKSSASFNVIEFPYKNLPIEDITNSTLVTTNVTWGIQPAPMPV
soluble integrin αvβ3, sequence (P05106 27-718, chain 2 of 2, further chain): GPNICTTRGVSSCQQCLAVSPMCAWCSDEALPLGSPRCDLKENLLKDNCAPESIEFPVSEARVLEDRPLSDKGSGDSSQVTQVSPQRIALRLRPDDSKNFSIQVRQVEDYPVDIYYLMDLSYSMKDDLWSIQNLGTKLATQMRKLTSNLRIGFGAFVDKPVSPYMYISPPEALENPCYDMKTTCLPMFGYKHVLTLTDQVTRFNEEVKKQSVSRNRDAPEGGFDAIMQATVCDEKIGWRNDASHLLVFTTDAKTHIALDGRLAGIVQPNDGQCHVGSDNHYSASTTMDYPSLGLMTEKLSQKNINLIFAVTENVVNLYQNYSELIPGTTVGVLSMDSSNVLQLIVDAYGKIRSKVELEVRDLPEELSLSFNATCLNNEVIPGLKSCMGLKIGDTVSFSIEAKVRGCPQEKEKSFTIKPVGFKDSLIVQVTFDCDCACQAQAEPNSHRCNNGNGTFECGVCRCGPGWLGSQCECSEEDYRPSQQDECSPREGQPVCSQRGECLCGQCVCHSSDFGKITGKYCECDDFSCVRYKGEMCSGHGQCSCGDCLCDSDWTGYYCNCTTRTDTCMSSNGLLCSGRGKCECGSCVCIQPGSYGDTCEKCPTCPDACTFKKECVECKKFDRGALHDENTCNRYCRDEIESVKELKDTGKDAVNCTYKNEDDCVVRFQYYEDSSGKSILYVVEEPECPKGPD

EC50 (human VEGF165 (human)) [nM] | Substance | IC50 (soluble integrin αvβ3) [nM] | αvβ3, IC50 (nM), inhibition of CHO-αvβ3 cell adhesion to fibrinogen [1] [nM]
0.088 to 0.195 | Positive Control 2 (aflibercept) (Fc fusion) |  | 
 | Positive Control 3 (wild type Rho, SEQ ID NO: 1) (from UniProt P30403 408-475) (ligand) | 2.6 to 3.2 | 24.7
